# Test results published in paper PMC9941103.
# Values joined by “and” are separate entries in the source; they are usually repeats but may differ in a detail not shown here. Equal values may be shown once.
# Key:
# [1] = molecular target: fully assembled ternary SNARE complex (SNAP25:Syntaxin-1A:Synaptobrevin-2, 3Q:1R) (UniProt P60881); assay: native MS; equimolar Syntaxin-1A added to the pre-assembled 2:1 SNAP25:Synaptobrevin-2 complex
# [2] = molecular target: fully assembled ternary SNARE complex (SNAP25:Syntaxin-1A:Synaptobrevin-2, 3Q:1R) (UniProt P60881); assay: native MS; Synaptobrevin-2, SNAP25 and Syntaxin-1A mixed 1:1:1, incubated overnight
# [3] = molecular target: fully assembled ternary SNARE complex (SNAP25:Syntaxin-1A:Synaptobrevin-2, 3Q:1R) (UniProt P60881); assay: native MS; 1.2 molar excess of Synaptobrevin-2 added to pre-assembled binary SNAP25:Syntaxin-1A complexes (1:2 mix), analysed directly
# [4] = molecular target: pre-assembled binary SNAP25:Syntaxin-1A complex (1:2, 4Q:0R) (UniProt P60881); assay: native MS; SNAP25 and Syntaxin-1A mixed 1:2; 200 mM ammonium acetate
# [5] = molecular target: SNARE:Complexin-1 complex (UniProt P60881); assay: native MS; equimolar Complexin-1 added to the pre-assembled SNARE complexes
substance,measurement,setting,value
"fully assembled ternary SNARE complex (SNAP25:Syntaxin-1A:Synaptobrevin-2, 3Q:1R) (from UniProt P60881 1-206; P32851 1-262; P63045 1-96)",stoichiometry N,[1],2 and 3 and 4
same,stoichiometry N,[2],2 and 3
same,stoichiometry N,[3],2 and 3
"pre-assembled binary SNAP25:Syntaxin-1A complex (1:2, 4Q:0R) (from UniProt P60881 1-206; P32851 1-262)",stoichiometry N,[4],2
SNARE:Complexin-1 complex (from UniProt P60881 1-206; P32851 1-262; P63045 1-96; P63041 1-134),stoichiometry N,[5],2
